Measured values taken from paper PMC10808074, “Regulation of micro- and small-exon retention and other splicing processes by GRP20 for flower development”.
Where a chain is given by its changes, count along the chain named.

Assays:
Test in all cases: EMSA; Probes: 400 fmol RNA, 17 ug protein, 1x binding buffer (Molecular Probes E33075 kit), room temp 30 min, 5% native PAGE, SYBR Green; pre-mRNA: 500 ng RNA in 10 mM HEPES, 150 mM NaCl, 3 mM EDTA, 2 mM DTT, 10% glycerol, 1 mM PMSF, room temp 30 min; pH not stated
Settings in all cases: protein: recombinant; tags: N-terminal His6-SUMO
GRP20ΔRBD = molecular target: T1, GRP20ΔRBD (Arabidopsis thaliana, UniProt Q7DV38 1-153, del92-115)
T1 sequence: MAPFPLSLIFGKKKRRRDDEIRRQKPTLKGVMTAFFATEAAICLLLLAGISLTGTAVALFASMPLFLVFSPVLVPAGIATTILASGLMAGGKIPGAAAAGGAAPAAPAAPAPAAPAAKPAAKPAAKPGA

GRP20 (RBDm) = molecular target: T2, GRP20 (RBDm) (Arabidopsis thaliana, UniProt Q7DV38 1-153, M102A;W103A;Y105A;K106A;K107A)
T2 sequence: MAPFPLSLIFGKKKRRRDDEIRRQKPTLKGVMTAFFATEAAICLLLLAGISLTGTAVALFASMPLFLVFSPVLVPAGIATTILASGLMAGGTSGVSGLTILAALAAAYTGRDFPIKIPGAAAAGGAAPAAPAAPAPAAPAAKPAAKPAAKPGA

GRP20ΔHDR = molecular target: T3, GRP20ΔHDR (Arabidopsis thaliana, UniProt Q7DV38 1-118)
T3 sequence: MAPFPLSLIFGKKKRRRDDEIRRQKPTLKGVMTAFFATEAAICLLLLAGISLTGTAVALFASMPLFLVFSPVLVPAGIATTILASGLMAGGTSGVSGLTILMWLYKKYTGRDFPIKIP

GRP20 = molecular target: T4, GRP20 (Arabidopsis thaliana, UniProt Q7DV38 1-153)
T4 sequence: T2 sequence with A102M, A103W, A105Y, A106K, A107K

Binder: GAAGAAGAAGAAG (ssRNA) [P1 (GA-rich consensus ES_C1)]
- binding result (GRP20ΔRBD): no binding
- binding result (GRP20 (RBDm)): no binding
- binding result (GRP20ΔHDR): binds
- binding result (GRP20): binds

Binder: UUGAUUAUGU (ssRNA) [P2 (ES_C2)]
- binding result (GRP20): binds

Binder: AUAUAUCUUU (ssRNA) [P3 (A3SS)]
- binding result (GRP20): binds

Binder: AGGAGAAGGCC (ssRNA) [AP1-probe]
- binding result (GRP20): binds

Binder: AUGAUAAUGCC (ssRNA) [AP1m-probe]
- binding result (GRP20): no binding
